From patent US20210113605A1
Values joined by “and” are separate entries in the source; they are usually repeats but may differ in a detail not shown here. Equal values may be shown once.

Target: T1, human TACI (transmembrane activator and CAML interactor, TNFRSF13B) on Tregs, iTregs and Bregs (human) (UniProt O14836)
T1 sequence: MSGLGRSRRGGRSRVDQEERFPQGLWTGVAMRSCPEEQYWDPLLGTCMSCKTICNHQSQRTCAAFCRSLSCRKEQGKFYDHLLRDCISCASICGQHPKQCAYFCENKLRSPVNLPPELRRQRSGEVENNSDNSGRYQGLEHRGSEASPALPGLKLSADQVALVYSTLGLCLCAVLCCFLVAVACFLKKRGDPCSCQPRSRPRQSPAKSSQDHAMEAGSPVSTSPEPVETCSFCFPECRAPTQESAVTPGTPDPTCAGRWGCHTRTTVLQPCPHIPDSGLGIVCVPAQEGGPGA
Assay: cell-based or functional assay

fold increase of MM cell-induced iTreg in CD4 T cells, against control media: > 1.5 fold and 1.5 to 4 fold | percent Breg (CD19+CD24highCD38high) in B cells of MM patient BMMCs: 25.2% | percent IL-10 production in Bregs of MM patient BMMCs: 29.2% | percent proliferative iTreg (CTV-Foxp3+) in cocultures with U266 MM cells, representative experiment: 13.4% | percent proliferative iTreg (CTV-Foxp3+) in cocultures with U266 MM cells, three experiments: 11.3% | percent proliferative iTreg (CTV-Foxp3+CD4+) in cocultures with U266 MM cells, additional representative experiment: 8.02%
Substance: recombinant human APRIL (a proliferation-inducing ligand) (from UniProt O75888 105-250)
